For assay [1], the target named is cardiac ryanodine receptor (RyR2), wild type, mouse heart (mouse (endogenous in cardiac homogenates)) (UniProt E9Q401). As to the kind of experiment: cross-linking; CaM-SANPAH at rising concentrations (to 1024 nM; also 3000) mixed with mouse cardiac homogenates (1 mg/mL) in 150 mmol/L KCl, 10 umol/L CaCl2, 20 mmol/L MES pH 6.8; 10 min binding, UV cross-linking, anti-CaM blot of the 550 kDa band; binding as ratio to the maximum; one Kd for each heart; hearts 2 weeks after transverse aortic constriction (TAC 2W).

For assay [2], the target named is cardiac ryanodine receptor (RyR2) V3599K, knock-in mouse heart (mouse (endogenous in cardiac homogenates)) (UniProt E9Q401). Described as above.
Assay [3] concerns the target cardiac ryanodine receptor (RyR2), wild type, mouse heart (mouse (endogenous in cardiac homogenates)) (UniProt E9Q401). As to the kind of experiment: cross-linking; CaM-SANPAH at rising concentrations (to 1024 nM; also 3000) mixed with mouse cardiac homogenates (1 mg/mL) in 150 mmol/L KCl, 10 umol/L CaCl2, 20 mmol/L MES pH 6.8; 10 min binding, UV cross-linking, anti-CaM blot of the 550 kDa band; binding as ratio to the maximum; one Kd for each heart; hearts of sham-operated mice.

Assay [4] has as its target cardiac ryanodine receptor (RyR2) V3599K, knock-in mouse heart (mouse (endogenous in cardiac homogenates)) (UniProt E9Q401). Described as above.

pKd: −log10 of the molar value. Where “and” joins values, the source holds several entries; their conditions need not be identical. Identical values can stand only once.

The pKd is the negative decadic logarithm of the Kd, by convention in mol/L. Broadly, the Kd is the concentration at which binding is half-saturated.

On to “CaM-SANPAH conjugate (recombinant calmodulin) (from UniProt P0DP23 1-149) (natural protein)”, for which the pKd in assay [1] was 6.93 and 6.82 and 6.86; in assay [2] it was 7.25 and 7.35 and 7.08. The Kd is 61.4 nM and 66.9 nM and 54.7 nM (2×) in assay [3]; 47.4 nM and 51.6 nM (2×) and 74.2 nM in assay [4].

(Values after article PMC7691336.)
